Assay results published in patent publication US20140322218A1 (Amgen, published 2014).

T1: Cyno Cadherin-19 (cynomolgus monkey (Macaca fascicularis), UniProt Q9H159 44-772 (human entry))
T1 construct: also called cyno CDH19; cynomologous CDH-19
T1 chain: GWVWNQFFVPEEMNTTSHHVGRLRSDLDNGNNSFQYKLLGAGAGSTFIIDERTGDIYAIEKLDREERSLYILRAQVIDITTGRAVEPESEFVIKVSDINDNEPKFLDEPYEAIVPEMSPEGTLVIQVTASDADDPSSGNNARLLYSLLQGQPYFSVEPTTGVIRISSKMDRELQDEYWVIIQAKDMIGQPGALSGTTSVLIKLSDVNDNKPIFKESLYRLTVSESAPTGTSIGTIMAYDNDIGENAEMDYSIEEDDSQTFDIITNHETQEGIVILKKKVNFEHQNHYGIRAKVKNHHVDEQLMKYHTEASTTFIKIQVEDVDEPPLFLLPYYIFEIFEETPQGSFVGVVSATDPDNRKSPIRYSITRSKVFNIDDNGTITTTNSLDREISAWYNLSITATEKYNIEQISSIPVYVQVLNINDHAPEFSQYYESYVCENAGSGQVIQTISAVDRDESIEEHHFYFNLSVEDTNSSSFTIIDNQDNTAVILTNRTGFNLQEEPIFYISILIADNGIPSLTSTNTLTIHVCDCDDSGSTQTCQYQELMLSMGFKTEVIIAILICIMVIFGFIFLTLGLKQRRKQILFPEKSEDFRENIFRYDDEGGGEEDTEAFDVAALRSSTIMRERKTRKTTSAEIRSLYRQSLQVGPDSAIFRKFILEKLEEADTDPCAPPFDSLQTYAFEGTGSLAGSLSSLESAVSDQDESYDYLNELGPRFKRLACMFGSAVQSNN

T2: ckCDH19(1-43)::FLAG::ckCDH19(44-776), on 293T cells (chicken)
T2 construct: Entry holds leader (1-43), Flag tag and CDH19 part; leader left out; also called Ck EC1-5
T2 chain: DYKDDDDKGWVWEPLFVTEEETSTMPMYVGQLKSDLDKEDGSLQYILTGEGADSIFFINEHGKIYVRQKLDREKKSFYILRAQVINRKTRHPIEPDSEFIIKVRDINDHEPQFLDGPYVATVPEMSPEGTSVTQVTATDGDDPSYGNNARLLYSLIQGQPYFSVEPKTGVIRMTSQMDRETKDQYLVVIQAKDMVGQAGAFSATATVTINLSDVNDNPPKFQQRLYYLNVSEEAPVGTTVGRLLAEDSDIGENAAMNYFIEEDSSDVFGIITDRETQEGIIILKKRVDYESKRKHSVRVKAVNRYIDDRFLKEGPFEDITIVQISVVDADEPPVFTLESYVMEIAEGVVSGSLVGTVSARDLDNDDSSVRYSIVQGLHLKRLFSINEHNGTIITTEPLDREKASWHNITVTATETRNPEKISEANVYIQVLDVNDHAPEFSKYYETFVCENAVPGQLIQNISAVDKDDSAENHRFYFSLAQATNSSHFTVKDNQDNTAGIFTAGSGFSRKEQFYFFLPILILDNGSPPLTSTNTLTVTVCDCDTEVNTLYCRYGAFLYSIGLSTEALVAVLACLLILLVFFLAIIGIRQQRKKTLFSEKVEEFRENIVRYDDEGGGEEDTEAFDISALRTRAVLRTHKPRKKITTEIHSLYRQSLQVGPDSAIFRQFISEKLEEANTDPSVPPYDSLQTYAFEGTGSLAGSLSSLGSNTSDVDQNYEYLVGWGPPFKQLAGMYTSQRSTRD

T3: ckCDH19(1-43)::FLAG::ckCDH19(44-141)::huCDH19(142-249)::ckCDH19(250-776), on 293T cells (human/chicken chimera)
T3 construct: Entry holds leader (1-43), Flag tag and CDH19 part; leader left out; also called Hu EC2 (chicken backbone)
T3 chain: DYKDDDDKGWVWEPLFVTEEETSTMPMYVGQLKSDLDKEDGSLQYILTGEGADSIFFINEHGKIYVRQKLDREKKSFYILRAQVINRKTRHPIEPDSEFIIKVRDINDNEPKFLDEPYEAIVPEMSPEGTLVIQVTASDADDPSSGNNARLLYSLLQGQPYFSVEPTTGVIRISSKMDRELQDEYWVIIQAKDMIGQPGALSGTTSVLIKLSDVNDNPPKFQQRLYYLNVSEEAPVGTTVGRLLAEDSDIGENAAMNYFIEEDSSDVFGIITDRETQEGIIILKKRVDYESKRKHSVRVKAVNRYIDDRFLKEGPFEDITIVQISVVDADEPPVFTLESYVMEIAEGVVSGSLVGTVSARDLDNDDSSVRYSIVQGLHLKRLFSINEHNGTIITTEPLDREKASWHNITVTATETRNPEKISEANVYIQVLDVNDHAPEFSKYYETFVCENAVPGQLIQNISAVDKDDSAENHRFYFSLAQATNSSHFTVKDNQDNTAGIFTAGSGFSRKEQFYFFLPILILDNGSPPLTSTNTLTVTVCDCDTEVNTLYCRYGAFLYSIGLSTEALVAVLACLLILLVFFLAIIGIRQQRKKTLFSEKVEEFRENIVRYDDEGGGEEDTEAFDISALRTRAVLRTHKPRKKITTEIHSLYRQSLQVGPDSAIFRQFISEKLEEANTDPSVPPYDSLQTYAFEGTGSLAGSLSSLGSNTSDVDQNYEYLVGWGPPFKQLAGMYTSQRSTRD

T4: (1-43)::FLAG::ckCDH19(44-468)::huCDH19(464-772), on 293T cells (human/chicken chimera)
T4 construct: Entry holds leader (1-43), Flag tag and CDH19 part; leader left out; also called Hu EC5 (chicken backbone)
T4 chain: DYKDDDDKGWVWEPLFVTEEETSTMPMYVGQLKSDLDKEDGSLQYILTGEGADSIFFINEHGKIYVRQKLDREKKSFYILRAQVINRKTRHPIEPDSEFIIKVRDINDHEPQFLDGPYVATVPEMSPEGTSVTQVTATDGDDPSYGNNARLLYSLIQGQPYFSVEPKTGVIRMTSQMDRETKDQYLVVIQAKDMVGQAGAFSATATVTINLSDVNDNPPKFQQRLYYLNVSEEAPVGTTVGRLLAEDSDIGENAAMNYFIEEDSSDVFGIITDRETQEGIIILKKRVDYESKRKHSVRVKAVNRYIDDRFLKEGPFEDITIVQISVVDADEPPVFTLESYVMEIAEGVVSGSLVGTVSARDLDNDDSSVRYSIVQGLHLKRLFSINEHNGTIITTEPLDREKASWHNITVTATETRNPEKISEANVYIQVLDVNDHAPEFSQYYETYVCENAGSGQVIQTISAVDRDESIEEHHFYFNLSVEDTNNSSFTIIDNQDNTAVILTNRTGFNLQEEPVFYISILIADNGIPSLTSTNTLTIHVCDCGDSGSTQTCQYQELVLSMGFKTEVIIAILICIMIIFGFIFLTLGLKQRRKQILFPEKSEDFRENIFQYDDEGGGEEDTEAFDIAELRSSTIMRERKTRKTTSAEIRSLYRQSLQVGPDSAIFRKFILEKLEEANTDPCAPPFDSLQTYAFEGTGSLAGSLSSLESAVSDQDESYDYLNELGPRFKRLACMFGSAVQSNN


Key:
[1] = target: T5, huCDH19(44-772), Flag-tagged, on 293T cells (human, UniProt Q9H159 44-772); assay: FACS, transfected 293T
T5 construct: Expressed with native leader (1-43) followed by a Flag tag; leader left out; also called Hu EC1-5
Source text: (§1) The experiment included assaying the anti-CDH19 antibodies against mouse Cadherin19 to determine suitability for binning on these human/mouse chimeras.

Cyno Cadherin-19 = target: T1, Cyno Cadherin-19; assay: FACS, recombinant cyno CDH19
Human Cadherin-19 = target: T6, Human Cadherin-19 (human, UniProt Q9H159 44-772); assay: FACS, endogenous CDH19 on CHL-1/Colo699
T6 construct: Residues 1-43 are named as the native leader in the construct designations and are left out; also called human CDH19; huCDH19
Procedure: FACS binding assays were performed to evaluate the binding of the anti-Cadherin-19 receptor specific antibodies to endogenous Cadherin-19 receptor expressed on the CHL-1 tumor cell lines.
FACs assays were performed by incubating hybridoma supernatants with 10,000 to 25,000 cells in PBS/2% Fetal bovine serum/2 mM Calcium Chloride at 4° C. for one hour followed by two washes with PBS/2% Fetal bovine serum/2 mM Calcium Chloride. Cells were then treated with florochrome-labeled secondary antibodies at 4° C. followed by one wash. The cells were resuspended in 50 μl of PBS/2% FBS and antibody binding was analyzed using a FACSCalibur™ instrument.

[2] = target: T7, huCDH19(44-141)::muCDH19(140-770), Flag-tagged, on 293T cells (human/mouse chimera); assay: FACS, transfected 293T
T7 construct: also called Hu EC1
Source text: as §1

[3] = target: T8, huCDH19(44-249)::muCDH19(248-770), Flag-tagged, on 293T cells (human/mouse chimera); assay: FACS, transfected 293T
T8 construct: also called Hu EC1-2; C137896
Source text: as §1

[4] = target: T2, ckCDH19(1-43)::FLAG::ckCDH19(44-776), …; assay: FACS, transfected 293T
Procedure: (§2) The following binding assay was completed in presence of 2 mM CaCl2. […] Cells were then washed one time and the amount of cell associated Alexa647-labelled Ab was quantitated by flow cytometry. The experiments included mock transfected controls.

[5] = target: T9, huCDH19(1-43)::FLAG::hu(44-141)::ckCDH19(142-776), on 293T cells (human/chicken chimera); assay: FACS, transfected 293T;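 further: antibody binding to chimera-expressing cells with 2 mM CaCl2 present, cell-bound Alexa647-labelled antibody read by flow cytometry, mock-transfected cells serving as control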
T9 construct: Entry holds leader (1-43), Flag tag and CDH19 part; leader left out; also called Hu EC1 (chicken backbone)
Procedure: as §2

[6] = target: T3, ckCDH19(1-43)::FLAG::ckCDH19(44-141)::hu …; assay: FACS, transfected 293T
Procedure: as §2

[7] = target: T4, (1-43)::FLAG::ckCDH19(44-468)::huCDH19(4 …); assay: FACS, transfected 293T
Procedure: as §2

Row | Binder | binding result [1] | binding result [2] | binding result [3] | further results
1 | hu anti-<huCDH19> 4B10 (1-471)(R17G,D61E,D72E) VH::huIgG1z / 4B10 (1-236)(H45Q,A90T) VL::huKLC (Ab ID 14055) (antibody, V domains shown, Engineered variant of 4B10) VH: QVQLVESGGGVVQPGGSLRLSCAASGFTFSSYDMHWVRQAPGKGLEWVAVISYEGTNEYYAESVKGRFTISRDTSKNTLYLQMNSLRAEDTAVYYCARERYFDWSFDYWGQGTLVSVSS VL: EIVLTQSPGTLSLSPGERATLSCRASQSVSNTYLAWYQQRPGQAPRLLIYGASSRATGIPDRFSGSGSGTDFTLTISSLEPEDFAVYYCQQYSNSWTFGQGTKVEIKR | binds |  |  | 
2 | hu anti-<huCDH19> 20D3.1 VH::huIgG1z / 20D3.1 VL::huLLC-C2 (Ab ID 13878) (antibody, V domains shown, also called 16H2; 23E7) VH: QVQLVQSGAEVKKPGASVKVSCKVSGYTFTSYFIHWVRQAPGQGLEWMGIINPISVSTSYAQKFQGRVTMTRDTSTSTVFMELSSLRSEDTAVYYCARGGIQLWLHFDYWGQGTLVTVSS VL: not shown |  |  |  | binding result (Cyno Cadherin-19): binds; binding result (Human Cadherin-19): binds
3 | hu anti-<huCDH19> 25F8.1 VH::huIgG1z / 25F8.1 (1-235)(K45Q,S102A) VL::huLLC-C2 (Ab ID 14094) (antibody, V domains shown, Engineered variant of 25F8) VH: QVQLVQSGAEVKKPGASVKVSCKASGYTFTSYYIHWVRQAPGQGLEWMGIINPSGGSTRYAQKFQGRVTMTRDTSTSTVFMELSSLRSEDTAVYYCARGGIQLWLHFDYWGQGTLVTVSS VL: not shown | binds | binds | binds | 
4 | hu anti-<huCDH19> 19B5.1 VH::huIgG1z / 19B5.1 VL::huLLC-C2 (Ab ID 13885) (antibody, V domains shown) VH: QVQLVQSGAEVKKPGASVKVSCKVSGYTFTSYFIHWVRQAPGQGLEWMGIINPISVSTSYAQKFQGRVTMTRDTSTSTVFMELSSLRSEDTAVYYCARGGIQLWLHLDYWGQGTLVTVSS VL: QSALTQPPSTTGTPGQRVTISCSGSRSNIGSNFVNWYKQLPGTAPKVLIYTNNQRPSGVPDRFSGSKSGTSASLAISGLQSEDESDYYCATWDDSMNGWVFGGGTKLTVLG |  |  |  | binding result (Cyno Cadherin-19): binds; binding result (Human Cadherin-19): binds
5 | hu anti-<huCDH19> 26D1.1 (1-469)(R27G,G82R) VH::huIgG1z / 26D1.1 (1-235)(H1Q,S7P) VL::huLLC-C2 (Ab ID 14088) (antibody, V domains shown, Engineered variant of 26D1) VH: QVQLVQSGAEVKKPGASVKVSCKASGYTFTSYYMSWVRQAPGQGLEWMGIIHPSGGDTTYAQKFQGRVTMTRDTSTSTVYMELSSLRSEDTAVYYCARGGIKLWLHFDYWGQGTLVTVSS VL: not shown | binds | binds | binds | 
6 | hu anti-<huCDH19> 4A9 VH::huIgG1z / 4A9 (1-239)(F47L) VL::huLLC-C1 (Ab ID 14056) (antibody, V domains shown, Engineered variant of 4A9) VH: QVQLQESGPGLVKPSETLSLTCTVSGGSISGYYWSWIRQPPGKGLEWFAYFSYSGSTNYNPSLKSRVTLSVDTSKNQFSLKLSSVTAADTAVYYCARNWAFHFDFWGQGTLVTVSS VL: QSVLTQPPSVSGAPGQRVTISCTGSSSNIGTGYAVHWYQQLPGTAPKLLIYGNNNRPSGVPDRFSGSKSGTSASLAITGLQAEDEADYYCQSYDSRLSGWVFGGGTKLTVLG | binds | binds | binds | 
7 | hu anti-<huCDH19> 4A9 (1-468)(F55I,A56G) VH::huIgG1z / 4A9 (1-239)(F47L) VL::huLLC-C1 (Ab ID 14057) (antibody, V domains shown, Engineered variant of 4A9) VH: QVQLQESGPGLVKPSETLSLTCTVSGGSISGYYWSWIRQPPGKGLEWIGYFSYSGSTNYNPSLKSRVTLSVDTSKNQFSLKLSSVTAADTAVYYCARNWAFHFDFWGQGTLVTVSS VL: QSVLTQPPSVSGAPGQRVTISCTGSSSNIGTGYAVHWYQQLPGTAPKLLIYGNNNRPSGVPDRFSGSKSGTSASLAITGLQAEDEADYYCQSYDSRLSGWVFGGGTKLTVLG | binds | binds | binds | 
8 | hu anti-<huCDH19> 17H8.2 VH::huIgG1z / 17H8.2 VL::huKLC (Ab ID 13874) (antibody, V domains shown, also called 23B6; 28D10) VH: QVQLQESGPGLVKPSETLSLTCTVSGGSINSYYWSWIRQPPGKGLEWIGYIYYIGSTNYNPSLKSRVTISVDTSKNQFSLKLSSVTAADTALYYCARDSRYRSGWYDAFDIWGQGTMVTVSS VL: DIVLTQSPGTLSLSPGERATLSCRASQSVAGSYLAWYQQKPGQAPRLLISGASSRATGIPDRFSGSGSGTDFTLTISRLEPEDFAVYYCQQYGKSPITFGQGTRLEMKG |  |  |  | binding result [4]: no binding (tested: 5 ug/ml); binding result [5]: binds; binding result [6]: no binding (tested: 5 ug/ml); binding result [7]: no binding (tested: 5 ug/ml)
